Source: article PMC7943578

What was measured:
CC-Type2-(LaIdGe)4 [1] = experiment: AUC; sedimentation velocity, 150 uM peptide, 20 C, 50 krpm, PBS pH 7.4; self-association of the peptide
CC-Type2-(LaIdGe)4 [2] = experiment: AUC; sedimentation equilibrium, 70 uM peptide, 20 C, PBS pH 7.4, single species model; self-association of the peptide
CC-Type2-(LaIdGe)4 [3] = experiment: AUC; sedimentation velocity with DPH, absorbance of DPH at 350 nm; 200 uM peptide, 5 uM DPH, 5% v/v DMSO in PBS pH 7.4, 25 C
CC-Type2-(LaIdGe)4 [4] = experiment: SEC; Superdex75 10/300 GL, 25% v/v IPA in PBS, samples loaded at 150 uM, monitored at 220 nm
CC-Type2-(LaIdGe)4 [5] = experiment: AUC; sedimentation equilibrium with 15% v/v isopropanol, 70 uM peptide, PBS pH 7.4, 30-45 krpm, single ideal species fit
CC-Type2-(LaIdGe)4 [6] = experiment: AUC; sedimentation velocity with 25% v/v isopropanol, 150 uM peptide, PBS pH 7.4
[7] = molecular target: CC-Type2-(LaIdGe)4-W19BrPhe; experiment: crystal structure; vapour diffusion at 19 C; 0.05 M sodium HEPES, 5% w/v PEG 4000, 5% v/v 2-propanol, pH 7; SAD phasing on bromine

Row | stoichiometry N (CC-Type2-(LaIdGe)4 [1]) | stoichiometry N (CC-Type2-(LaIdGe)4 [2]) | stoichiometry N (x monomer mass) (CC-Type2-(LaIdGe)4 [3]) | stoichiometry N (CC-Type2-(LaIdGe)4 [4]) | stoichiometry N (x monomer mass) (CC-Type2-(LaIdGe)4 [5]) | stoichiometry N (x monomer mass) (CC-Type2-(LaIdGe)4 [6]) | stoichiometry N [7] | Substance
1 | 6 | 6 | 6.2 | 6 | 5.7 | 5.5 | – | CC-Type2-(LaIdGe)4 (peptide)
2 | – | – | – | – | – | – | 6 | CC-Type2-(LaIdGe)4-W19BrPhe (peptide)
